1 substance from paper PMC3761233 can be followed below.

Assay [1] concerns the target porcine aminopeptidase N, expressed from a plasmid on BHK-21 or HEK 293T cells (porcine) (UniProt P15145). Nature of the assay: flow cytometry on cells.
The target in assay [2] is endogenous porcine aminopeptidase N on ST cells and IPI-21 cells (porcine (endogenous in ST and IPI-21 cells)) (UniProt P15145). Nature of the assay: flow cytometry on cells.

In turn, “soluble TGEV spike protein (S1 subunit fused to the human IgG Fc portion) (from UniProt P07946 29-1447) (Fc fusion)” displayed a percent of cells bound (BHK-21 cells expressing APN, after neuraminidase) (% of the cells) in assay [1] greater than 60. Moreover, in assay [2], the percent of cells bound (ST cells, after neuraminidase) (% of the cells) was greater than 60 and the percent of cells bound (ST cells, without neuraminidase) (% of the cells) was found to be 50.
